One molecule from publication PMC9561270, “Phosphorylation of the auxin signaling transcriptional repressor IAA15 by MPKs is required for the suppression of root development under drought stress in Arabidopsis” (Nucleic Acids Research, 2022) can be followed below.

The target in one assay is T1, His-MPK3 (Arabidopsis thaliana, UniProt Q39023 1-370).
T1 construct: also called His-fused MPK3; source: E. coli M15, purified (Ni-NTA agarose); not shown: His, N-terminal, kept
T1 sequence (looked up): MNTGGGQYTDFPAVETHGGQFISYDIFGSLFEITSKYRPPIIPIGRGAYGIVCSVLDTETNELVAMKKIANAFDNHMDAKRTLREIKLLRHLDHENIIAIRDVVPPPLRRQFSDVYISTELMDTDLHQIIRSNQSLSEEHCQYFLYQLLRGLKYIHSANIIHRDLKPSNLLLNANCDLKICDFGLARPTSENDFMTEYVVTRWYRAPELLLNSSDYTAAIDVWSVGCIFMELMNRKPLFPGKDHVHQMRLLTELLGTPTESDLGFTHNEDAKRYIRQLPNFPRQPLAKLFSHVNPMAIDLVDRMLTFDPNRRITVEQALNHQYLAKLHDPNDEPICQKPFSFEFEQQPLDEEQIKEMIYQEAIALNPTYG
Description: pull-down; 2 ug GST or GST-IAA15 on glutathione-Sepharose 4B beads; 1 ug His-MPK added, overnight at 4 C; 50 mM Tris-HCl pH 7.5, 200 mM NaCl, 1% Triton X-100, 0.1 mM EDTA, 0.5 mM DTT; detected with anti-His antibodies. The following applies: both partners purified.

A further assay deals with T2, His-MPK6 (Arabidopsis thaliana, UniProt Q39026 1-395).
T2 construct: also called His-fused MPK6; source: E. coli M15, purified (Ni-NTA agarose); not shown: His, N-terminal, kept
T2 sequence (Q39026 whole entry, the tested form may be a part): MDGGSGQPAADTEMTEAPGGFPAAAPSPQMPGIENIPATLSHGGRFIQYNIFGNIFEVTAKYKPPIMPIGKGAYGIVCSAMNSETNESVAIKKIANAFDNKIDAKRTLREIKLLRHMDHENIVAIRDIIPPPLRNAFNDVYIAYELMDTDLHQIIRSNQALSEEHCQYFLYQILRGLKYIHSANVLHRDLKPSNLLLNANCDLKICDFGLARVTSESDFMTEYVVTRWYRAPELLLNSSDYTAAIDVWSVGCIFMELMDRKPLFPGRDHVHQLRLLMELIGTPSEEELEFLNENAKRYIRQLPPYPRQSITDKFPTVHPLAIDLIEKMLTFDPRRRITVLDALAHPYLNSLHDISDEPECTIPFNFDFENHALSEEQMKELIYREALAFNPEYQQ
The assay is described as above. Particulars: both partners purified.

B1: GST-IAA15 (natural protein, Arabidopsis thaliana, UniProt Q9C966 1-179, looked up)
chain: MSPEEYVRVWPDSGDLGGTELTLALPGTPTNASEGPKKFGNKRRFLETVDLKLGEAHENNYISSMVTNDQLVGWPPVATARKTVRRKYVKVALDGAAYLRKVDLGMYDCYGQLFTALENMFQGIITICRVTELERKGEFVATYEDKDGDLMLVGDVPWMMFVESCKRMRLMKTGDAIGL
notes: Auxin-responsive protein IAA15, Arabidopsis thaliana, At1g80390, full length, cloned into pGEX-4T-1; also called GST-fused IAA15; GST-IAA15^WT; source: E. coli BL21 (DE3), purified (glutathione Sepharose-4B); not shown: GST, N-terminal, kept
Consider B1, for which the binding result with His-MPK3 and with His-MPK6 was “binds” in each case.
